Holding throughout (conditions): glycan lost; control: wild type
The nature of series [1]: co-immunostaining with ER marker KDEL, HEK293.
Series [2] can be described thus: flow cytometry of cell surface TMPRSS2, HEK293. For orientation: In flow cytometry, cells or beads pass a laser one at a time.
Series [3] is described as follows: co-immunostaining with Golgi marker GM130, HEK293.

B1: TMPRSS2 (transmembrane protease serine 2): N286Q (protein)
parent chain: MPPAPPGGESGCEERGAAGHIEHSRYLSLLDAVDNSKMALNSGSPPAIGPYYENHGYQPENPYPAQPTVVPTVYEVHPAQYYPSPVPQYAPRVLTQASNPVVCTQPKSPSGTVCTSKTKKALCITLTLGTFLVGAALAAGLLWKFMGSKCSNSGIECDSSGTCINPSNWCDGVSHCPGGEDENRCVRLYGPNFILQVYSSQRKSWHPVCQDDWNENYGRAACRDMGYKNNFYSSQGIVDDSGSTSFMKLNTSAGNVDIYKKLYHSDACSSKAVVSLRCIACGVNLNSSRQSRIVGGESALPGAWPWQVSLHVQNVHVCGGSIITPEWIVTAAHCVEKPLNNPWHWTAFAGILRQSFMFYGAGYQVEKVISHPNYDSKTKNNDIALMKLQKPLTFNDLVKPVCLPNPGMMLQPEQLCWISGWGATEEKGKTSEVLNAAKVLLIETQRCNSRYVYDNLITPAMICAGFLQGNVDSCQGDSGGPLVTSKNNIWWLIGDTSWGSGCAKAYRPGVYGNVMVFTDWIYRQMRADG
Turning to B1, the localisation_or_trafficking result in series [1], in series [2] and in series [3] was “no change” in each case.

B2: TMPRSS2 (transmembrane protease serine 2): N250Q/N286Q (protein)
parent chain: MPPAPPGGESGCEERGAAGHIEHSRYLSLLDAVDNSKMALNSGSPPAIGPYYENHGYQPENPYPAQPTVVPTVYEVHPAQYYPSPVPQYAPRVLTQASNPVVCTQPKSPSGTVCTSKTKKALCITLTLGTFLVGAALAAGLLWKFMGSKCSNSGIECDSSGTCINPSNWCDGVSHCPGGEDENRCVRLYGPNFILQVYSSQRKSWHPVCQDDWNENYGRAACRDMGYKNNFYSSQGIVDDSGSTSFMKLNTSAGNVDIYKKLYHSDACSSKAVVSLRCIACGVNLNSSRQSRIVGGESALPGAWPWQVSLHVQNVHVCGGSIITPEWIVTAAHCVEKPLNNPWHWTAFAGILRQSFMFYGAGYQVEKVISHPNYDSKTKNNDIALMKLQKPLTFNDLVKPVCLPNPGMMLQPEQLCWISGWGATEEKGKTSEVLNAAKVLLIETQRCNSRYVYDNLITPAMICAGFLQGNVDSCQGDSGGPLVTSKNNIWWLIGDTSWGSGCAKAYRPGVYGNVMVFTDWIYRQMRADG
Turning to B2, the localisation_or_trafficking entry in series [1] is recorded as “changes”.

B3: TMPRSS2 (transmembrane protease serine 2): N250Q (protein)
parent chain: MPPAPPGGESGCEERGAAGHIEHSRYLSLLDAVDNSKMALNSGSPPAIGPYYENHGYQPENPYPAQPTVVPTVYEVHPAQYYPSPVPQYAPRVLTQASNPVVCTQPKSPSGTVCTSKTKKALCITLTLGTFLVGAALAAGLLWKFMGSKCSNSGIECDSSGTCINPSNWCDGVSHCPGGEDENRCVRLYGPNFILQVYSSQRKSWHPVCQDDWNENYGRAACRDMGYKNNFYSSQGIVDDSGSTSFMKLNTSAGNVDIYKKLYHSDACSSKAVVSLRCIACGVNLNSSRQSRIVGGESALPGAWPWQVSLHVQNVHVCGGSIITPEWIVTAAHCVEKPLNNPWHWTAFAGILRQSFMFYGAGYQVEKVISHPNYDSKTKNNDIALMKLQKPLTFNDLVKPVCLPNPGMMLQPEQLCWISGWGATEEKGKTSEVLNAAKVLLIETQRCNSRYVYDNLITPAMICAGFLQGNVDSCQGDSGGPLVTSKNNIWWLIGDTSWGSGCAKAYRPGVYGNVMVFTDWIYRQMRADG
For B3, the localisation_or_trafficking entry is given as “changes” in series [1] and “no change” in series [3].
